In article PMC6817665:

Assays:
[1] = target: CEP55 His-NOA (His-tag version of the human CEP55 NOA fragment, residues 304–396) (human) (UniProt Q53EZ4); assay: BLI
[2] = target: mixture of biotinylated K63 poly-ubiquitin chains (Ub2-7) (UniProt P0CG48); assay: BLI
[3] = target: N-terminally fluorescein-labeled CEP55 ZF mutant E460A (human) (UniProt Q53EZ4); assay: fluorescence polarisation
Chain of N-terminally fluorescein-labeled CEP55 ZF mutant E460A (human) (Q53EZ4 435-464 E460A): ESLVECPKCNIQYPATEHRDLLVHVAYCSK

Chain of CEP55 His-NOA (His-tag version of the human CEP55 NOA fragment, residues 304–396) (human) (Q53EZ4 304-396): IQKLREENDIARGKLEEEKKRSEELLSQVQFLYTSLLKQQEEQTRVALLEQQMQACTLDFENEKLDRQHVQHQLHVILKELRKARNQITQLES

K63-linked tetra-ubiquitin (Ub4) (from UniProt P0CG48 1-76) (complex)
fold by which the KD is higher than that of M1-linked Ub4 [1]: 30 fold

Strep-tag II CEP55 ZF (StrepII-tag version of CEP55 ZF peptide, residues 435–464) (from UniProt Q53EZ4-1 435-464)
Kd [2]: 2100 nM

mono-ubiquitin (from UniProt P0CG48 1-76) (natural protein)
fold weaker affinity than WT [3]: 20 fold
